In paper PMC11883000, “Structure-function relationship of ASH1L and histone H3K36 and H3K4 methylation” (Nature Communications, 2025):
Ends that are not written are not given here. Me2 = dimethylation (dimethyl-lysine)

Key:
[1] = molecular target: T1, ASH1L plant homeodomain (PHD) finger, wild type (aa 2579-2629) (human, UniProt Q9NR48 2579-2629); assay: NMR titration; 1H,15N HSQC chemical shift perturbation; unlabelled ligand (histone peptide or ASH1LSET) added to 0.1-0.2 mM 15N-labelled protein; 298 K; 25 mM Tris pH 7.5, 150 mM NaCl, 5 mM DTT; conditions: both partners purified
T1 construct: ASH1L, human, PHD finger, aa 2579-2629; 15N-labelled for NMR; also called ASH1LPHD; ASH1L PHD; source: E. coli BL21 or Rosetta2 (DE3) pLysS, purified (glutathione agarose, SEC)

[2] = molecular target: T2, ASH1L tandem bromodomain-PHD finger (aa 2436-2638) (human, UniProt Q9NR48 2436-2638); assay: NMR solution structure; 0.5 mM ASH1L_(BD-PHD) with H3K4me2 peptide (aa 1-15); 298 K; 200 mM sodium phosphate pH 6.3, 5 mM DTT; conditions: both partners purified
T2 construct: ASH1L, human, bromodomain and PHD finger, aa 2436-2638 (NMR structure sample); 13C/15N-labelled and 75% deuterated; The protein expression section lists ASH1L_(BD-PHD) as aa 2430-2629 (GST fusion, E. coli); the NMR structure section gives aa 2436-2638; also called ASH1L_(BD-PHD)

B1: histone H3K4me0 (unmodified) peptide (aa 1-12 of H3) (peptide, UniProt P68431 2-13, looked up)
peptide: ARTKQTARKSTG
notes: histone H3, residues 1-12
B1 was tested. Which Kd [1] did it give?
Its Kd is 1900 µM.

B2: histone H3K4me2 peptide (aa 1-15 of H3) (peptide, UniProt P68431 2-16, looked up)
peptide: ARTK(Me2)QTARKSTGGKA
notes: histone H3, residues 1-15
Does B2 bind [2]?
Result: binds

B3: histone H3K4me1 peptide (aa 1-12 of H3) (peptide, UniProt P68431 2-13, looked up)
peptide: ARTK(Me)QTARKSTG
notes: histone H3, residues 1-12
For B3, which Kd [1] is on record?
The Kd was 119 µM.
